{
  "source": "paper PMC10397247",
  "key": {"4H3855-bN": {"target": "T1, 4H3855-bN", "T1 chain": "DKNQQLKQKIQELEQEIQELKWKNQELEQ", "assay": "two-hybrid library CCNG1;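 also: natural log of median RNA to DNA barcode read ratio; higher means stronger binding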"}, "4H607-bN": {"target": "T2, 4H607-bN", "T2 chain": "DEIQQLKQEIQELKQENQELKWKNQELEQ", "assay": "two-hybrid library CCNG1"}, "4H754-bN": {"target": "T3, 4H754-bN", "T3 chain": "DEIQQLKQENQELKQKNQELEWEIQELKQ", "assay": "two-hybrid library CCNG1"}, "4H3782-bN": {"target": "T4, 4H3782-bN", "T4 chain": "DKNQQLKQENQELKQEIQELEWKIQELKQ", "assay": "two-hybrid library CCNG1"}, "4H72-bN": {"target": "T5, 4H72-bN", "T5 chain": "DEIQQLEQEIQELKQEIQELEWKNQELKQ", "assay": "two-hybrid library CCNG1"}, "4H717-bN": {"target": "T6, 4H717-bN", "T6 chain": "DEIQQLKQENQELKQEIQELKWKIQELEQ", "assay": "two-hybrid library CCNG1"}, "4H338-bN": {"target": "T7, 4H338-bN", "T7 chain": "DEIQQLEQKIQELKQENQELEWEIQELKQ", "assay": "two-hybrid library CCNG1"}, "4H918-bN": {"target": "T8, 4H918-bN", "T8 chain": "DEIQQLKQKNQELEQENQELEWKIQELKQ", "assay": "two-hybrid library CCNG1"}, "4H967-bN": {"target": "T9, 4H967-bN", "T9 chain": "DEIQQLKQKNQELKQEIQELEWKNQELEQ", "assay": "two-hybrid library CCNG1"}, "4H953-bN": {"target": "T10, 4H953-bN", "T10 chain": "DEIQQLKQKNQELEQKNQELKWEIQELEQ", "assay": "two-hybrid library CCNG1"}, "4H687-bN": {"target": "T11, 4H687-bN", "T11 chain": "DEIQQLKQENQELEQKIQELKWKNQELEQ", "assay": "two-hybrid library CCNG1"}, "4H908-bN": {"target": "T12, 4H908-bN", "T12 chain": "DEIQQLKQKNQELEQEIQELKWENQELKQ", "assay": "two-hybrid library CCNG1"}, "4H454-bN": {"target": "T13, 4H454-bN", "T13 chain": "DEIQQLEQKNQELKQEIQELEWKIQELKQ", "assay": "two-hybrid library CCNG1"}, "4H3427-bN": {"target": "T14, 4H3427-bN", "T14 chain": "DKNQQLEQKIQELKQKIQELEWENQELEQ", "assay": "two-hybrid library CCNG1"}, "4H568-bN": {"target": "T15, 4H568-bN", "T15 chain": "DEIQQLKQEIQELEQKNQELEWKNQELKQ", "assay": "two-hybrid library CCNG1"}, "4H883-bN": {"target": "T16, 4H883-bN", "T16 chain": "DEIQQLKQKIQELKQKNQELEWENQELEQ", "assay": "two-hybrid library CCNG1"}, "4H4001-bN": {"target": "T17, 4H4001-bN", "T17 chain": "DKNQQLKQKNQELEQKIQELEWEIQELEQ", "assay": "two-hybrid library CCNG1"}, "4H797-bN": {"target": "T18, 4H797-bN", "T18 chain": "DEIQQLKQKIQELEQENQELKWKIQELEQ", "assay": "two-hybrid library CCNG1"}, "AP8-AA": {"target": "T19, AP8-AA", "T19 chain": "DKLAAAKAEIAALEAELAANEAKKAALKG", "assay": "two-hybrid library CCmax", "settings": "mean of both orientations"}, "P8-AA": {"target": "T20, P8-AA", "T20 chain": "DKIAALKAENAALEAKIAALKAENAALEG", "assay": "two-hybrid library CCmax", "settings": "mean of both orientations"}, "P4-AA": {"target": "T21, P4-AA", "T21 chain": "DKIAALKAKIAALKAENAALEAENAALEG", "assay": "two-hybrid library CCmax", "settings": "mean of both orientations"}, "P10-AA": {"target": "T22, P10-AA", "T22 chain": "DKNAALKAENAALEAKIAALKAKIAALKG", "assay": "two-hybrid library CCmax", "settings": "mean of both orientations"}, "P9-AA": {"target": "T23, P9-AA", "T23 chain": "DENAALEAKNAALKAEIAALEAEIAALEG", "assay": "two-hybrid library CCmax", "settings": "mean of both orientations"}, "GCN2_T": {"target": "GCN2_T", "assay": "two-hybrid library CCmax"}, "P2-AA": {"target": "T24, P2-AA", "T24 chain": "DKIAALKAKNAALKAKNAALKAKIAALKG", "assay": "two-hybrid library CCmax", "settings": "mean of both orientations"}, "P1-AA": {"target": "T25, P1-AA", "T25 chain": "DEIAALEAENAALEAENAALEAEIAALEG", "assay": "two-hybrid library CCmax", "settings": "mean of both orientations"}, "P7-AA": {"target": "T26, P7-AA", "T26 chain": "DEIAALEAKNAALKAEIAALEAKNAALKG", "assay": "two-hybrid library CCmax", "settings": "mean of both orientations"}, "P11-AA": {"target": "T27, P11-AA", "T27 chain": "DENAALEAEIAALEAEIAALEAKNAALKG", "assay": "two-hybrid library CCmax", "settings": "mean of both orientations"}, "AP7-AA": {"target": "T28, AP7-AA", "T28 chain": "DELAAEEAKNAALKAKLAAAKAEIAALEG", "assay": "two-hybrid library CCmax", "settings": "mean of both orientations"}, "P3-AA": {"target": "T29, P3-AA", "T29 chain": "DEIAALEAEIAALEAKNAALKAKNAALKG", "assay": "two-hybrid library CCmax", "settings": "mean of both orientations"}, "P12-AA": {"target": "T30, P12-AA", "T30 chain": "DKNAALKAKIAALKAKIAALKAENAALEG", "assay": "two-hybrid library CCmax", "settings": "mean of both orientations"}, "4H3843-bN": {"target": "T31, 4H3843-bN", "T31 chain": "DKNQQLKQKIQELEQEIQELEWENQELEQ", "assay": "two-hybrid library CCNG1"}, "4H462-bN": {"target": "T32, 4H462-bN", "T32 chain": "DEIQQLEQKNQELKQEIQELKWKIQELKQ", "assay": "two-hybrid library CCNG1"}, "4H370-bN": {"target": "T33, 4H370-bN", "T33 chain": "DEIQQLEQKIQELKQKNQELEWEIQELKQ", "assay": "two-hybrid library CCNG1"}},
  "data": [
    {"binder": "DEIQQLEQKIQELKQENQELEWEIQELKQ", "note": "[4H338-bN]", "values": [
      {"measurement": "interaction score", "setting": "4H3855-bN", "value": -0.12},
      {"measurement": "interaction score", "setting": "4H607-bN", "value": -1.19},
      {"measurement": "interaction score", "setting": "4H754-bN", "value": -0.701},
      {"measurement": "interaction score", "setting": "4H3782-bN", "value": -0.966},
      {"measurement": "interaction score", "setting": "4H72-bN", "value": -0.606},
      {"measurement": "interaction score", "setting": "4H717-bN", "value": -1.16},
      {"measurement": "interaction score", "setting": "4H338-bN", "value": -1.01},
      {"measurement": "interaction score", "setting": "4H918-bN", "value": -0.295},
      {"measurement": "interaction score", "setting": "4H967-bN", "value": 0.117},
      {"measurement": "interaction score", "setting": "4H953-bN", "value": -1.33},
      {"measurement": "interaction score", "setting": "4H687-bN", "value": 0.0368},
      {"measurement": "interaction score", "setting": "4H908-bN", "value": -0.434},
      {"measurement": "interaction score", "setting": "4H454-bN", "value": -0.967},
      {"measurement": "interaction score", "setting": "4H3427-bN", "value": -0.828},
      {"measurement": "interaction score", "setting": "4H568-bN", "value": 0.409},
      {"measurement": "interaction score", "setting": "4H883-bN", "value": -1.26},
      {"measurement": "interaction score", "setting": "4H4001-bN", "value": -0.385},
      {"measurement": "interaction score", "setting": "4H797-bN", "value": -1.45}
    ]},
    {"binder": "DEEAALEAKAAALKAELAANEAKLAAAKG", "note": "[AP6-AA]", "values": [
      {"measurement": "interaction score", "setting": "AP8-AA", "value": -1.59},
      {"measurement": "interaction score", "setting": "P8-AA", "value": -1.22},
      {"measurement": "interaction score", "setting": "P4-AA", "value": -2.36},
      {"measurement": "interaction score", "setting": "P10-AA", "value": -0.802},
      {"measurement": "interaction score", "setting": "P9-AA", "value": -0.901},
      {"measurement": "interaction score", "setting": "GCN2_T", "value": -1.54},
      {"measurement": "interaction score", "setting": "P2-AA", "value": -1.88},
      {"measurement": "interaction score", "setting": "P1-AA", "value": -1.88},
      {"measurement": "interaction score", "setting": "P7-AA", "value": -0.655},
      {"measurement": "interaction score", "setting": "P11-AA", "value": -1.25},
      {"measurement": "interaction score", "setting": "AP7-AA", "value": -1.62},
      {"measurement": "interaction score", "setting": "P3-AA", "value": -1.95},
      {"measurement": "interaction score", "setting": "P12-AA", "value": -1.57}
    ]},
    {"binder": "DEIQQLEQKIQELKQKNQELEWEIQELKQ", "note": "[4H370-bN]", "values": [
      {"measurement": "interaction score", "setting": "4H607-bN", "value": -0.679},
      {"measurement": "interaction score", "setting": "4H3782-bN", "value": -0.329},
      {"measurement": "interaction score", "setting": "4H72-bN", "value": -0.189},
      {"measurement": "interaction score", "setting": "4H918-bN", "value": -0.831},
      {"measurement": "interaction score", "setting": "4H967-bN", "value": -0.814},
      {"measurement": "interaction score", "setting": "4H3843-bN", "value": -0.715},
      {"measurement": "interaction score", "setting": "4H953-bN", "value": -1.96},
      {"measurement": "interaction score", "setting": "4H687-bN", "value": -1.17},
      {"measurement": "interaction score", "setting": "4H462-bN", "value": -1.49},
      {"measurement": "interaction score", "setting": "4H568-bN", "value": 0.649},
      {"measurement": "interaction score", "setting": "4H883-bN", "value": -1.39},
      {"measurement": "interaction score", "setting": "4H4001-bN", "value": -0.655},
      {"measurement": "interaction score", "setting": "4H797-bN", "value": -0.598},
      {"measurement": "interaction score", "setting": "4H370-bN", "value": 0.966}
    ]}
  ]
}
